Data reported in PMC7442826 (2020).
Blank lines part the entries; values can stand above or below the binder they belong to.

B4: EHBP1 bMERB domain (bMERB_(1060-1212), full-length bMERB domain) (domain or fragment)
chain: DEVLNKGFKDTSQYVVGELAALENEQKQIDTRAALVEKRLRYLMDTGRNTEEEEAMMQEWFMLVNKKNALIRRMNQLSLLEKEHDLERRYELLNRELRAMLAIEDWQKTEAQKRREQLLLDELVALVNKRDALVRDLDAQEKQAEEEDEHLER

Legend:
[1] = target: B4; test: displacement by GppNHp Rab8a
[2] = target: EHBP1 full-length bMERB domain M1116A (human, UniProt Q8NDI1-1 1060-1212, M1116A); test: ITC
[3] = target: EHBP1 full-length bMERB domain M1103A (human, UniProt Q8NDI1-1 1060-1212, M1103 to alanine); test: ITC
[4] = target: B4; test: ITC
[5] = target: Rab8a_(1-176_T72E) (phosphomimetic Rab8a) (human, UniProt P61006 1-176, T72E); test: ITC
[6] = target: EHBP1 CH domain Q542A (human, UniProt Q8NDI1-1 440-550, Q542 to alanine); test: ITC
[7] = target: EHBP1 CH domain D532A (human, UniProt Q8NDI1-1 440-550, D532 to alanine); test: ITC
[8] = target: EHBP1 CH domain M537A (human, UniProt Q8NDI1-1 440-550, M537 to alanine); test: ITC
[9] = target: EHBP1 CH domain Y541A (human, UniProt Q8NDI1-1 440-550, Y541 to alanine); test: ITC
[10] = target: EHBP1 bMERB domain L1156S (human, UniProt Q8NDI1-1 1060-1212, L1156S); test: ITC; GppNHp
[11] = target: EHBP1 bMERB domain Q1176A (human, UniProt Q8NDI1-1 1060-1212, Q1176A); test: ITC; GppNHp
[12] = target: EHBP1 bMERB domain N1187A (human, UniProt Q8NDI1-1 1060-1212, N1187A); test: ITC; GppNHp
[13] = target: EHBP1 bMERB domain R1189A (human, UniProt Q8NDI1-1 1060-1212, R1189A); test: ITC; GppNHp
[14] = target: EHBP1 bMERB domain L1182S (human, UniProt Q8NDI1-1 1060-1212, L1182S); test: ITC; GppNHp
[15] = target: EHBP1 bMERB domain L1179S (human, UniProt Q8NDI1-1 1060-1212, L1179S); test: ITC; GppNHp
EHBP1 bMERB domain L1179S, sequence (Q8NDI1 1060-1212 L1179S): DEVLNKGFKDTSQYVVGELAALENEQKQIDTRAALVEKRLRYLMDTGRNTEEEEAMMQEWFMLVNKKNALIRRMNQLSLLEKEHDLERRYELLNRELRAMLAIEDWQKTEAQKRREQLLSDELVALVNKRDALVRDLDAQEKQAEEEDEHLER

EHBP1 bMERB domain N1187A, sequence (Q8NDI1 1060-1212 N1187A): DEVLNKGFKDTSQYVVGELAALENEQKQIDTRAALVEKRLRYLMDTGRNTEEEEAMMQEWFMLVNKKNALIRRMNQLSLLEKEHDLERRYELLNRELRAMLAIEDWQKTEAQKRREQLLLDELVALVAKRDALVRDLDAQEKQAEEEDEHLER
EHBP1 bMERB domain R1189A, sequence (Q8NDI1 1060-1212 R1189A): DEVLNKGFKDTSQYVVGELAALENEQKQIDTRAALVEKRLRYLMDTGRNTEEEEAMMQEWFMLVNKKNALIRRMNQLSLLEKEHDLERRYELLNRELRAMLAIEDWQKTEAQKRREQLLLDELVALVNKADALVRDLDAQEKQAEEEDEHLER
EHBP1 CH domain Y541A, sequence (Q8NDI1 1060-1212, stated change not applied): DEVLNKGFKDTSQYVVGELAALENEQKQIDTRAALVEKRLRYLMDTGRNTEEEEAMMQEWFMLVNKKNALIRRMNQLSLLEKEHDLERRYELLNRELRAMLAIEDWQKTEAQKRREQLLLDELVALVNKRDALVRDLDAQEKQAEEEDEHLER
EHBP1 CH domain D532A, sequence (Q8NDI1 1060-1212, stated change not applied): as above
EHBP1 CH domain M537A, sequence (Q8NDI1 1060-1212, stated change not applied): as above
EHBP1 CH domain Q542A, sequence (Q8NDI1 1060-1212, stated change not applied): as above
EHBP1 bMERB domain L1156S, sequence (Q8NDI1 1060-1212 L1156S): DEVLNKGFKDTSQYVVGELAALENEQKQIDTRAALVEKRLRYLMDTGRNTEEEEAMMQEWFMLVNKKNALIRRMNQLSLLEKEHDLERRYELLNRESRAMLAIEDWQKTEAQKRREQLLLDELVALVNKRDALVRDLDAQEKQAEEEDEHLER
EHBP1 bMERB domain L1182S, sequence (Q8NDI1 1060-1212 L1182S): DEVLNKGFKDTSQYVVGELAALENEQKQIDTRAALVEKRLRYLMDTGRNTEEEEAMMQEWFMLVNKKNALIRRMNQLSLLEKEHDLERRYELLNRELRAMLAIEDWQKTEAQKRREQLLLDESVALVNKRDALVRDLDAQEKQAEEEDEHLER
EHBP1 bMERB domain Q1176A, sequence (Q8NDI1 1060-1212 Q1176A): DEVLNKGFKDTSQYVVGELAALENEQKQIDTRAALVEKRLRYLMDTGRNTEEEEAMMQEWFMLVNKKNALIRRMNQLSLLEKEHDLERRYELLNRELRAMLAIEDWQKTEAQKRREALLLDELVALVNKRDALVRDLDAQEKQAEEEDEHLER
EHBP1 full-length bMERB domain M1103A, sequence (Q8NDI1 1060-1212 M1103A): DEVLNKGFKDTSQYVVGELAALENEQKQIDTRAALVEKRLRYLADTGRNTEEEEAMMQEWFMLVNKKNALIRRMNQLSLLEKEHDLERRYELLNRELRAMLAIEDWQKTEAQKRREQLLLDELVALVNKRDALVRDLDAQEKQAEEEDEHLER
EHBP1 full-length bMERB domain M1116A, sequence (Q8NDI1 1060-1212 M1116A): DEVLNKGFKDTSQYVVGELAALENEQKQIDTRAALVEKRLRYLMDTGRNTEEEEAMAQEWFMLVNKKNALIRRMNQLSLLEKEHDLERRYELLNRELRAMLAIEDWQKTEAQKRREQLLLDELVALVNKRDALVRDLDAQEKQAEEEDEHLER

- koff [1]: 165 s⁻¹
B1: Cy3 labeled EHBP1 CH domain (domain or fragment)
chain: GRKPNASQSLLVWCKEVTKNYRGVKITNFTTSWRNGLSFCAILHHFRPDLIDYKSLNPQDIKENNKKAYDGFASIGISRLLEPSDMVLLAIPDKLTVMTYLYQIRAHFSGQ
modifications: Cy3 on the N-terminus

- Kd [2]: 15.8 µM
- Kd [3]: 34.7 µM
B2: EHBP1 CH (calponin homology) domain (domain or fragment)
chain: GRKPNASQSLLVWCKEVTKNYRGVKITNFTTSWRNGLSFCAILHHFRPDLIDYKSLNPQDIKENNKKAYDGFASIGISRLLEPSDMVLLAIPDKLTVMTYLYQIRAHFSGQ

- Kd [4]: 0.32 µM
B3: Rab10_(1-175) (human Rab10 G-domain) (domain or fragment)
chain: MAKKTYDLLFKLLLIGDSGVGKTCVLFRFSDDAFNTTFISTIGIDFKIKTVELQGKKIKLQIWDTAGQERFHTITTSYYRGAMGIMLVYDITNGKSFENISKWLRNIDEHANEDVERMLLGNKCDMDDKRVVPKGKGEQIAREHGIRFFETSAKANINIEKAFLTLAEDILRKTP

Binder: B4
- Kd [5]: 0.4 µM
- Kd [6]: 3.85 µM
- Kd [7]: 43.5 µM
- Kd [8]: 7.6 µM
- Kd [9]: 5.65 µM

- Kd [10]: 14.3 µM
- Kd [11]: 0.33 µM
- Kd [12]: 1.5 µM
- Kd [13]: 6 µM
- Kd [14]: 3.04 µM
- Kd [15]: 3.23 µM
B5: Rab8a_(1-176) (human Rab8a G-domain) (domain or fragment)
chain: MAKTYDYLFKLLLIGDSGVGKTCVLFRFSEDAFNSTFISTIGIDFKIRTIELDGKRIKLQIWDTAGQERFRTITTAYYRGAMGIMLVYDITNEKSFDNIRNWIRNIEEHASADVEKMILGNKCDVNDKRQVSKERGEKLALDYGIKFMETSAKANINVENAFFTLARDIKAKMDKK
